Experiment [1] has as its target adult muscle nicotinic acetylcholine receptor (α1β1εδ), mouse (mouse) (UniProt P04756).
In experiment [2] the target is fetal muscle nicotinic acetylcholine receptor (α1β1γδ), mouse (mouse) (UniProt P04756).
Experiment [3] shares this target. This is another data set of the same source.

In the case of “Fraction 4 of the tentacle venom extract (TVE) of the jellyfish Aurelia aurita”, the results for the IC50 of inhibition of ACh-elicited currents, two-electrode voltage clamp on X. laevis oocytes expressing the receptor in experiment [1] and in experiment [2] were 2280 mg/L and 1770 mg/L, respectively. The percent block of ACh-elicited currents at 1.5, 3 and 4.5 μg total protein of fraction 4 (25%, 50%, 96%), voltage clamp on X. laevis oocytes in experiment [3] came out at 96%.

The record behind these values is PMC3873694.
